# Measurements reported in paper PMC2583301.
# Target: H2A/H2B(T112C) dimer, H2B labelled with Alexa dye (Xenopus laevis) (UniProt P06897)
# Experiment: other fluorescence titration
Kd [nM],Kd app (yNap1 counted as dimer) [nM],Binder
10,5.4,yNap1(74-365) (domain or fragment) LGSLVGQDSGYVGGLPKNVKEKLLSLKTLQSELFEVEKEFQVEMFELENKFLQKYKPIWEQRSRIISGQEQPKPEQIAKGQEIVESLNETELLVDEEEKAQNDSEEEQVKGIPSFWLTALENLPIVCDTITDRDAEVLEYLQDIGLEYLTDGRPGFKLLFRFDSSANPFFTNDILCKTYFYQKELGYSGDFIYDHAEGCEISWKDNAHNVTVDLEMRKQRNKTTKQVRTIEKITPIESFFNFFDPPKIQNEDQDEELEEDLEERLALDYSIGEQLKDKLIPRAVDWFTGAAL
2.1,1,yNap1(1-365) (domain or fragment) MSDPIRTKPKSSMQIDNAPTPHNTPASVLNPSYLKNGNPVRAQAQEQDDKIGTINEEDILANQPLLLQSIQDRLGSLVGQDSGYVGGLPKNVKEKLLSLKTLQSELFEVEKEFQVEMFELENKFLQKYKPIWEQRSRIISGQEQPKPEQIAKGQEIVESLNETELLVDEEEKAQNDSEEEQVKGIPSFWLTALENLPIVCDTITDRDAEVLEYLQDIGLEYLTDGRPGFKLLFRFDSSANPFFTNDILCKTYFYQKELGYSGDFIYDHAEGCEISWKDNAHNVTVDLEMRKQRNKTTKQVRTIEKITPIESFFNFFDPPKIQNEDQDEELEEDLEERLALDYSIGEQLKDKLIPRAVDWFTGAAL
1.7,0.9,yNap1(74-417) (domain or fragment) LGSLVGQDSGYVGGLPKNVKEKLLSLKTLQSELFEVEKEFQVEMFELENKFLQKYKPIWEQRSRIISGQEQPKPEQIAKGQEIVESLNETELLVDEEEKAQNDSEEEQVKGIPSFWLTALENLPIVCDTITDRDAEVLEYLQDIGLEYLTDGRPGFKLLFRFDSSANPFFTNDILCKTYFYQKELGYSGDFIYDHAEGCEISWKDNAHNVTVDLEMRKQRNKTTKQVRTIEKITPIESFFNFFDPPKIQNEDQDEELEEDLEERLALDYSIGEQLKDKLIPRAVDWFTGAALEFEFEEDEEEADEDEDEEEDDDHGLEDDDGESAEEQDDFAGRPEQAPECKQS
